For one protein, Km and kcat results are on record in PMC3124622.

Substrate in this data set: Nc1nc2nc[nH]c2c(=O)[nH]1
The data set can be described thus: purified protein, by the assay type. Type of data set: biochemical, E. coli. To be noted: other: wild-type, guanine as substrate, 20 μM tRNA, 37 °C, pH 7.3.

As usually defined, the kcat is the maximal rate divided by the concentration of active sites.

B1: E. coli TGT Wild-Type (Escherichia coli K-12) (protein)
chain: MKFELDTTDGRARRGRLVFDRGVVETPCFMPVGTYGTVKGMTPEEVEATGAQIILGNTFHLWLRPGQEIMKLHGDLHDFMQWKGPILTDSGGFQVFSLGDIRKITEQGVHFRNPINGDPIFLDPEKSMEIQYDLGSDIVMIFDECTPYPADWDYAKRSMEMSLRWAKRSRERFDSLGNKNALFGIIQGSVYEDLRDISVKGLVDIGFDGYAVGGLAVGEPKADMHRILEHVCPQIPADKPRYLMGVGKPEDLVEGVRRGIDMFDCVMPTRNARNGHLFVTDGVVKIRNAKYKSDTGPLDPECDCYTCRNYSRAYLHHLDRCNEILGARLNTIHNLRYYQRLMAGLRKAIEEGKLESFVTDFYQRQGREVPPLNVD
Turning to B1, the Km is 0.35 (0.03) μM and the kcat was found to be 0.00629 s⁻¹.
